Results on 1 molecule are retold here after PMC3285612.

Experiment [1] addresses activated coagulation factor X (FXa), human (human).
For experiment [2] the target is unchanged. As to the kind of experiment: enzyme inhibition assay (Ki from IC50 by Cheng and Prusoff); rSimukunin titrated against a constant concentration of enzyme, pre-incubated 5 min, fluorogenic peptidyl substrate 250 µM, 30°C; Ki calculated from the IC50 and the substrate's Km; estimated.

B1: recombinant Simukunin (rSV-66) (natural protein)
chain: QENVCNLPVDEGVCRALFKRFYYEPATDSCKEFYYGGCEGNGNRFKSKKECILKCQKNKQLIKTRKRKPKKTTKPPIPIISLD
In experiment [1], B1 yielded an IC50 of inhibition of enzyme activity (fluorogenic peptidyl substrate, 250 µM); Factor Xa 0.1 nM of 5.2 nM. In experiment [2], the Ki was 2.1 nM.
